Laboratory results as given in the Human Domainome abundance scans (Beltran et al. 2025).
± gives the uncertainty stated by the source.

B1: Homeobox protein SIX6, residues 134 to 184; numbered along this chain, O95475 (parent)
chain: CFKERTRHLLREWYLQDPYPNPSKKRELAQATGLTPTQVGNWFKNRRQRDR

Variants of: B1
Assay: abundance fitness (aPCA) (normalised: wild type 0, dead -1); higher = more abundant; growth selection in yeast, the domain comes from the species named
Details: Homo sapiens

**Q.** For CFKERTRHLLLEWYLQDPYPNPSKKRELAQATGLTPTQVGNWFKNRRQRDR [R11L], which abundance fitness is on record?
**A.** The abundance fitness was 0.008 ± 0.059.

**Q.** Which abundance fitness does the source give for CFKERTRHLLAEWYLQDPYPNPSKKRELAQATGLTPTQVGNWFKNRRQRDR [R11A] here?
**A.** Its abundance fitness is -0.379 ± 0.1.

**Q.** With CFKERTRHLLIEWYLQDPYPNPSKKRELAQATGLTPTQVGNWFKNRRQRDR [R11I] as the variant, how does the abundance fitness read?
**A.** Its abundance fitness is 0.051 ± 0.059.

**Q.** For CFKERTRHLLKEWYLQDPYPNPSKKRELAQATGLTPTQVGNWFKNRRQRDR [R11K], which abundance fitness is on record?
**A.** Its abundance fitness is 0.066 ± 0.074.

**Q.** With CFKERTRHLLEEWYLQDPYPNPSKKRELAQATGLTPTQVGNWFKNRRQRDR [R11E] as the variant, how does the abundance fitness read?
**A.** The abundance fitness was 0.125 ± 0.043.

**Q.** Which abundance fitness does the source give for CFKERTRHLLFEWYLQDPYPNPSKKRELAQATGLTPTQVGNWFKNRRQRDR [R11F] here?
**A.** Its abundance fitness is -0.63 ± 0.14.

**Q.** For CFKERTRHLLDEWYLQDPYPNPSKKRELAQATGLTPTQVGNWFKNRRQRDR [R11D], which abundance fitness is on record?
**A.** Its abundance fitness is -0.612 ± 0.072.

**Q.** With CFKERTRHLLHEWYLQDPYPNPSKKRELAQATGLTPTQVGNWFKNRRQRDR [R11H] as the variant, how does the abundance fitness read?
**A.** Its abundance fitness is -0.487 ± 0.23.

**Q.** Which abundance fitness does the source give for CFKERTRHLLGEWYLQDPYPNPSKKRELAQATGLTPTQVGNWFKNRRQRDR [R11G] here?
**A.** Its abundance fitness is -0.119 ± 0.075.

**Q.** With CFKERTQHLLREWYLQDPYPNPSKKRELAQATGLTPTQVGNWFKNRRQRDR [R7Q] as the variant, how does the abundance fitness read?
**A.** The abundance fitness was 0.02 ± 0.048.

**Q.** Which abundance fitness does the source give for CFKERTVHLLREWYLQDPYPNPSKKRELAQATGLTPTQVGNWFKNRRQRDR [R7V] here?
**A.** Its abundance fitness is -0.058 ± 0.062.

**Q.** With CFKERTTHLLREWYLQDPYPNPSKKRELAQATGLTPTQVGNWFKNRRQRDR [R7T] as the variant, how does the abundance fitness read?
**A.** Its abundance fitness is 0.01 ± 0.052.

**Q.** With CFKERTYHLLREWYLQDPYPNPSKKRELAQATGLTPTQVGNWFKNRRQRDR [R7Y] as the variant, how does the abundance fitness read?
**A.** Its abundance fitness is -0.147 ± 0.067.

**Q.** For CFKERTSHLLREWYLQDPYPNPSKKRELAQATGLTPTQVGNWFKNRRQRDR [R7S], which abundance fitness is on record?
**A.** The abundance fitness was -0.084 ± 0.053.

**Q.** Which abundance fitness does the source give for CFKERTPHLLREWYLQDPYPNPSKKRELAQATGLTPTQVGNWFKNRRQRDR [R7P] here?
**A.** Its abundance fitness is -0.359 ± 0.07.

**Q.** Which abundance fitness does the source give for CFKERTRHQLREWYLQDPYPNPSKKRELAQATGLTPTQVGNWFKNRRQRDR [L9Q] here?
**A.** The abundance fitness was -0.35 ± 0.088.

**Q.** For CFKERTRHKLREWYLQDPYPNPSKKRELAQATGLTPTQVGNWFKNRRQRDR [L9K], which abundance fitness is on record?
**A.** Its abundance fitness is -0.258 ± 0.13.

**Q.** With CFKERTRHILREWYLQDPYPNPSKKRELAQATGLTPTQVGNWFKNRRQRDR [L9I] as the variant, how does the abundance fitness read?
**A.** Its abundance fitness is 0.145 ± 0.12.

**Q.** With CFKERTRHPLREWYLQDPYPNPSKKRELAQATGLTPTQVGNWFKNRRQRDR [L9P] as the variant, how does the abundance fitness read?
**A.** The abundance fitness was -0.645 ± 0.061.

**Q.** With CFKERTRHWLREWYLQDPYPNPSKKRELAQATGLTPTQVGNWFKNRRQRDR [L9W] as the variant, how does the abundance fitness read?
**A.** Its abundance fitness is -1.12 ± 0.31.

**Q.** For CFKERTRHMLREWYLQDPYPNPSKKRELAQATGLTPTQVGNWFKNRRQRDR [L9M], which abundance fitness is on record?
**A.** The abundance fitness was -0.238 ± 0.14.

**Q.** For CFKERTRHELREWYLQDPYPNPSKKRELAQATGLTPTQVGNWFKNRRQRDR [L9E], which abundance fitness is on record?
**A.** The abundance fitness was -0.751 ± 0.11.

**Q.** Which abundance fitness does the source give for CFKERTRHDLREWYLQDPYPNPSKKRELAQATGLTPTQVGNWFKNRRQRDR [L9D] here?
**A.** The abundance fitness was -0.739 ± 0.18.

**Q.** With CFKERTRHHLREWYLQDPYPNPSKKRELAQATGLTPTQVGNWFKNRRQRDR [L9H] as the variant, how does the abundance fitness read?
**A.** Its abundance fitness is -0.626 ± 0.17.

**Q.** For CFKERTRHSLREWYLQDPYPNPSKKRELAQATGLTPTQVGNWFKNRRQRDR [L9S], which abundance fitness is on record?
**A.** Its abundance fitness is -0.793 ± 0.061.

**Q.** For CFKERTRHRLREWYLQDPYPNPSKKRELAQATGLTPTQVGNWFKNRRQRDR [L9R], which abundance fitness is on record?
**A.** The abundance fitness was -0.314 ± 0.072.

**Q.** Which abundance fitness does the source give for CFKERTRHALREWYLQDPYPNPSKKRELAQATGLTPTQVGNWFKNRRQRDR [L9A] here?
**A.** The abundance fitness was -0.387 ± 0.093.

**Q.** Which abundance fitness does the source give for CFKERTRHYLREWYLQDPYPNPSKKRELAQATGLTPTQVGNWFKNRRQRDR [L9Y] here?
**A.** Its abundance fitness is -0.283 ± 0.053.

**Q.** For CFKERTRHTLREWYLQDPYPNPSKKRELAQATGLTPTQVGNWFKNRRQRDR [L9T], which abundance fitness is on record?
**A.** The abundance fitness was -0.138 ± 0.071.

**Q.** For CFKERTRHNLREWYLQDPYPNPSKKRELAQATGLTPTQVGNWFKNRRQRDR [L9N], which abundance fitness is on record?
**A.** The abundance fitness was -0.827 ± 0.066.

**Q.** With CFKERTRHVLREWYLQDPYPNPSKKRELAQATGLTPTQVGNWFKNRRQRDR [L9V] as the variant, how does the abundance fitness read?
**A.** The abundance fitness was -0.328 ± 0.085.

**Q.** For CFKERTRHFLREWYLQDPYPNPSKKRELAQATGLTPTQVGNWFKNRRQRDR [L9F], which abundance fitness is on record?
**A.** Its abundance fitness is -0.213 ± 0.14.

**Q.** With CFKERTRHGLREWYLQDPYPNPSKKRELAQATGLTPTQVGNWFKNRRQRDR [L9G] as the variant, how does the abundance fitness read?
**A.** The abundance fitness was -0.914 ± 0.059.

**Q.** With CFKERTRSLLREWYLQDPYPNPSKKRELAQATGLTPTQVGNWFKNRRQRDR [H8S] as the variant, how does the abundance fitness read?
**A.** The abundance fitness was 0.135 ± 0.033.

**Q.** With CFKERTRGLLREWYLQDPYPNPSKKRELAQATGLTPTQVGNWFKNRRQRDR [H8G] as the variant, how does the abundance fitness read?
**A.** The abundance fitness was -0.1 ± 0.049.

**Q.** With CFKERTRCLLREWYLQDPYPNPSKKRELAQATGLTPTQVGNWFKNRRQRDR [H8C] as the variant, how does the abundance fitness read?
**A.** Its abundance fitness is -0.032 ± 0.073.

**Q.** Which abundance fitness does the source give for CFKERTRHLPREWYLQDPYPNPSKKRELAQATGLTPTQVGNWFKNRRQRDR [L10P] here?
**A.** Its abundance fitness is -0.793 ± 0.17.

**Q.** With CFKERTRHLNREWYLQDPYPNPSKKRELAQATGLTPTQVGNWFKNRRQRDR [L10N] as the variant, how does the abundance fitness read?
**A.** The abundance fitness was -0.722 ± 0.42.

**Q.** For CFKERTRHLAREWYLQDPYPNPSKKRELAQATGLTPTQVGNWFKNRRQRDR [L10A], which abundance fitness is on record?
**A.** Its abundance fitness is -1.02 ± 0.14.

**Q.** Which abundance fitness does the source give for CFKERTRHLWREWYLQDPYPNPSKKRELAQATGLTPTQVGNWFKNRRQRDR [L10W] here?
**A.** The abundance fitness was -0.892 ± 0.084.

**Q.** For CFKERTRHLVREWYLQDPYPNPSKKRELAQATGLTPTQVGNWFKNRRQRDR [L10V], which abundance fitness is on record?
**A.** Its abundance fitness is -1.12 ± 0.16.

**Q.** With CFKERTRHLCREWYLQDPYPNPSKKRELAQATGLTPTQVGNWFKNRRQRDR [L10C] as the variant, how does the abundance fitness read?
**A.** The abundance fitness was -0.608 ± 0.16.

**Q.** Which abundance fitness does the source give for CFKERTRHLFREWYLQDPYPNPSKKRELAQATGLTPTQVGNWFKNRRQRDR [L10F] here?
**A.** Its abundance fitness is -0.684 ± 0.19.

**Q.** With CFKERTRHLKREWYLQDPYPNPSKKRELAQATGLTPTQVGNWFKNRRQRDR [L10K] as the variant, how does the abundance fitness read?
**A.** The abundance fitness was -0.993 ± 0.12.

**Q.** Which abundance fitness does the source give for CFKERTRHLMREWYLQDPYPNPSKKRELAQATGLTPTQVGNWFKNRRQRDR [L10M] here?
**A.** Its abundance fitness is -0.676 ± 0.053.

**Q.** Which abundance fitness does the source give for CFKERTRHLEREWYLQDPYPNPSKKRELAQATGLTPTQVGNWFKNRRQRDR [L10E] here?
**A.** Its abundance fitness is -0.741 ± 0.1.

**Q.** For CFKERTRHLQREWYLQDPYPNPSKKRELAQATGLTPTQVGNWFKNRRQRDR [L10Q], which abundance fitness is on record?
**A.** Its abundance fitness is -0.613 ± 0.14.

**Q.** Which abundance fitness does the source give for CFKERTRHLSREWYLQDPYPNPSKKRELAQATGLTPTQVGNWFKNRRQRDR [L10S] here?
**A.** Its abundance fitness is -0.916 ± 0.1.

**Q.** Which abundance fitness does the source give for CFKERTRHLTREWYLQDPYPNPSKKRELAQATGLTPTQVGNWFKNRRQRDR [L10T] here?
**A.** Its abundance fitness is -0.888 ± 0.089.

**Q.** Which abundance fitness does the source give for CFKERTRHLHREWYLQDPYPNPSKKRELAQATGLTPTQVGNWFKNRRQRDR [L10H] here?
**A.** The abundance fitness was -0.841 ± 0.1.

**Q.** Which abundance fitness does the source give for CFKERTRHLGREWYLQDPYPNPSKKRELAQATGLTPTQVGNWFKNRRQRDR [L10G] here?
**A.** Its abundance fitness is -0.983 ± 0.13.
